Laboratory results as given in the supplement of paper PMC10126150.
± gives the standard deviation of the averaged measurements.

tested on: ATP; assay: switch fluorescence ratio, 500 uM ATP over buffer (Cy3 cluster intensity, sum of 5 cycles each) (fold (ratio)); higher = stronger signal-on switching upon ATP binding; sequences stand for … in TCGTCGGCAGCGTCAGATGTGTATAAGAGACAGTTTTTTTTTTTTTTTTTTTTTTTTT…TC; conditions: aptamer strand: ATP DNA aptamer (quencher-CACCTGGGGGAGTATTGCGGAGGAAGG + anchor), 100 nM annealed; ATP concentration: 500 uM
In short: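 Clusters with intensities outside 100-1000 RFU were excluded. The remaining Cy3-labelled switching-strand clusters on a modified Illumina MiSeq flow-cell had been annealed to 100 nM quencher-labelled ATP aptamer and imaged in selection buffer, then after 15 min with 500 uM ATP at 22 °C, for five cycles separated by NaOH stripping and re-annealing. The fluorescence ratio, averaged per switch-domain sequence, is each cluster's summed target-cycle Cy3 intensity over its summed buffer-cycle Cy3 intensity.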
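Note: ATP exposure 15 min at 22 °C before imaging.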

Compared with CGGGAACCTT, CGAGGCACAG is higher in switch fluorescence ratio: 1.283 ± 0.01 for the first, 1.53 ± 0.052 for the second.

TAGTTGGGGC and AGGAGTATGG are within error of each other in switch fluorescence ratio: 1.01 ± 0.026 for the first, 1.02 ± 0.015 for the second.

CGATTTTGTA and TTATTGTAT are within error of each other in switch fluorescence ratio: 1.01 ± 0.051 for the first, 0.988 ± 0.043 for the second.

CTTAGCATTG and AGGAATAAGC are within error of each other in switch fluorescence ratio: 1.03 ± 0.023 for the first, 1.01 ± 0.012 for the second.

GTGGGTATTT and ATTTTTGTGG are within error of each other in switch fluorescence ratio: 0.977 ± 0.023 for the first, 0.974 ± 0.011 for the second.

ATCAGACGGG and CGCGCGATTA are within error of each other in switch fluorescence ratio: 1 ± 0.025 for the first, 1.02 ± 0.036 for the second.

GTAGAAAAAG and ATAGGTTCGT are within error of each other in switch fluorescence ratio: 1.99 ± 1.4 for the first, 0.99 ± 0.012 for the second.

ACTGGAAGTG and CGTTTGGAGG are the same in switch fluorescence ratio: 1.03 ± 0.0039 for the first, 1.03 ± 0.016 for the second.

First: CATTGAGTAG
Second: CAAAGATGG
The switch fluorescence ratio of the first is higher: 1.01 ± 0.024 for the first, 0.947 ± 0.013 for the second.

CTAGGTATAG and AGTAATAAGT are within error of each other in switch fluorescence ratio: 1.006 ± 0.0072 for the first, 0.979 ± 0.047 for the second.

TACAATTTTT and TAATACGTTG are within error of each other in switch fluorescence ratio: 1.01 ± 0.028 for the first, 1.03 ± 0.012 for the second.

First: GTATAAGCCT
Second: TCGGTGGTAA
The switch fluorescence ratio of the first is higher: 1.05 ± 0.041 for the first, 0.9823 ± 0.0065 for the second.

AATAAGAGGA and TAGCTCTAGT are the same in switch fluorescence ratio: 1.02 ± 0.026 for the first, 1.016 ± 0.0044 for the second.

Compared with TTTTAGTTAC, ACATAAAAGG is lower in switch fluorescence ratio: 1.073 ± 0.0044 for the first, 0.994 ± 0.021 for the second.

GATATTATCA and TTGATGTCCC are within error of each other in switch fluorescence ratio: 1.017 ± 0.0049 for the first, 1 ± 0.027 for the second.

First: ACTAACGGGA
Second: CGTTGTTCGC
The switch fluorescence ratio of the first is higher: 1.39 ± 0.15 for the first, 1.02 ± 0.028 for the second.

CATGGGTGTG and AAATTCGGTT are within error of each other in switch fluorescence ratio: 0.993 ± 0.042 for the first, 0.99 ± 0.013 for the second.

GGAGTAGGTA and TGAATTTTTG are within error of each other in switch fluorescence ratio: 1 ± 0.031 for the first, 0.989 ± 0.028 for the second.

TTTTGTTTCC and AACCGTGGTG are within error of each other in switch fluorescence ratio: 1.01 ± 0.062 for the first, 1.05 ± 0.073 for the second.

GGGATCAAGA and AATTTTTGTT are within error of each other in switch fluorescence ratio: 0.998 ± 0.023 for the first, 1 ± 0.029 for the second.

GATTGGTTAT and GAGATTTAGG are within error of each other in switch fluorescence ratio: 0.962 ± 0.029 for the first, 0.969 ± 0.034 for the second.

GGGGTGTTTG and AGACGGTCTG are within error of each other in switch fluorescence ratio: 0.981 ± 0.022 for the first, 0.973 ± 0.0098 for the second.

First: ATGGTGAATG
Second: GCGTTTATAC
The switch fluorescence ratio of the first is lower: 0.978 ± 0.017 for the first, 1.96 ± 0.56 for the second.

CCGTGTACGG and AGTCGTGTGT are within error of each other in switch fluorescence ratio: 0.999 ± 0.054 for the first, 0.971 ± 0.046 for the second.

CATGATAGTT and GAAGTAGGTC are within error of each other in switch fluorescence ratio: 0.997 ± 0.017 for the first, 1.02 ± 0.041 for the second.

TCGGGCAGCG and ATCTGAGTAG are within error of each other in switch fluorescence ratio: 0.989 ± 0.058 for the first, 0.999 ± 0.023 for the second.

TCAGGATGGC and TCGGGGCTCT are within error of each other in switch fluorescence ratio: 1.13 ± 0.092 for the first, 1.07 ± 0.12 for the second.

TGATTGTGAA and TTTTTTGGT are within error of each other in switch fluorescence ratio: 1 ± 0.024 for the first, 0.986 ± 0.016 for the second.

CAAAGATAAT and CGTATGCAGT are the same in switch fluorescence ratio: 1.01 ± 0.039 for the first, 1.01 ± 0.011 for the second.

TTCGGGTATT and GGCAGGGGAT are within error of each other in switch fluorescence ratio: 1.1 ± 0.2 for the first, 1.33 ± 0.6 for the second.

TTGGGTTTCT and TATATTGAGG are within error of each other in switch fluorescence ratio: 0.97996 ± 0.00043 for the first, 0.991 ± 0.042 for the second.

TGAAGGGAAC and GTGGGGCTGG are within error of each other in switch fluorescence ratio: 1.06 ± 0.13 for the first, 1.008 ± 0.0055 for the second.

Going from ATTAAGCCAC to ATCGGCAGGG, the switch fluorescence ratio falls from 1.12 ± 0.053 to 0.981 ± 0.052.

TCTTATAATA and ATGATAAGGG are within error of each other in switch fluorescence ratio: 0.988 ± 0.032 for the first, 0.979 ± 0.013 for the second.

Going from GTCGAAGGAA to GAGAGGAGGT, the switch fluorescence ratio rises from 1 ± 0.011 to 1.022 ± 0.0029.

First: TATCGGTCGG
Second: ATAATAATTT
The switch fluorescence ratio of the first is lower: 0.98 ± 0.021 for the first, 1.02 ± 0.011 for the second.

ATTTAAAGAT and AGGCACGCTG are within error of each other in switch fluorescence ratio: 0.987 ± 0.049 for the first, 1.02 ± 0.014 for the second.

GCTAGAAAGA and AAGGGAATGA are within error of each other in switch fluorescence ratio: 0.972 ± 0.0073 for the first, 0.987 ± 0.016 for the second.

GGGGATAGCG and TGGTTTACTA are within error of each other in switch fluorescence ratio: 1 ± 0.018 for the first, 1.009 ± 0.0096 for the second.

CTTCTCTATC and GGAGTCGGGC are within error of each other in switch fluorescence ratio: 1.01 ± 0.027 for the first, 0.981 ± 0.04 for the second.

GATGTCGTAC and GGTAGGTCGT are within error of each other in switch fluorescence ratio: 0.99 ± 0.012 for the first, 1.02 ± 0.074 for the second.

GCTGGTGGGG and AAAAGAAAGG are within error of each other in switch fluorescence ratio: 0.964 ± 0.05 for the first, 0.985 ± 0.012 for the second.

ATTATAGGGT and AGGGGTTAGT are within error of each other in switch fluorescence ratio: 1.03 ± 0.026 for the first, 0.999 ± 0.036 for the second.

TTTATCGGTG and ATTGAGTGTT are within error of each other in switch fluorescence ratio: 0.995 ± 0.035 for the first, 0.987 ± 0.034 for the second.

AATGTAGGGA and TGGGTGAAGG are within error of each other in switch fluorescence ratio: 1.06 ± 0.051 for the first, 0.999 ± 0.022 for the second.

TGGGGGCACT and CATATGATCG are within error of each other in switch fluorescence ratio: 0.982 ± 0.022 for the first, 0.961 ± 0.025 for the second.

GCGATGGGGC and AGGGGGGGGG are within error of each other in switch fluorescence ratio: 1.04 ± 0.039 for the first, 1.02 ± 0.072 for the second.

TCTGTTAAT and TGCAGTCATG are within error of each other in switch fluorescence ratio: 1.11 ± 0.18 for the first, 0.995 ± 0.03 for the second.

First: TTTTCATACT
Second: AAGGCTGAGT
The switch fluorescence ratio of the first is higher: 1.07 ± 0.046 for the first, 1 ± 0.0011 for the second.

GTGGGGTTTT and ATGCACTGGT are within error of each other in switch fluorescence ratio: 0.983 ± 0.022 for the first, 1.01 ± 0.026 for the second.

TAGATAGAAC and GAGGAATGGC are within error of each other in switch fluorescence ratio: 0.976 ± 0.054 for the first, 0.9828 ± 0.0022 for the second.

CGTATTATTA and TCGGGAGATT are within error of each other in switch fluorescence ratio: 0.988 ± 0.03 for the first, 1.02 ± 0.029 for the second.

First: ACAGGGGGAA
Second: AGGAAAGTAG
The switch fluorescence ratio of the first is higher: 1.01 ± 0.024 for the first, 0.9719 ± 0.0097 for the second.

TGCGGTGTCG and AAGTTGAGGA are within error of each other in switch fluorescence ratio: 1.06 ± 0.083 for the first, 0.978 ± 0.016 for the second.

TGGGACTGTT and GGTAGTGCTG are within error of each other in switch fluorescence ratio: 0.986 ± 0.028 for the first, 0.982 ± 0.042 for the second.

TTGTAGAGGG and TACGGGGCCA are within error of each other in switch fluorescence ratio: 1.01 ± 0.029 for the first, 0.992 ± 0.01 for the second.

Compared with AGTATTGTCT, CGGTACGCTG is lower in switch fluorescence ratio: 1.039 ± 0.003 for the first, 1.01 ± 0.017 for the second.

Going from AAGTTTTGTT to GCTAGCTAAG, the switch fluorescence ratio rises from 0.987 ± 0.023 to 1.034 ± 0.0011.

CACGGGTTCC and GCGAATGCTG are within error of each other in switch fluorescence ratio: 1.03 ± 0.041 for the first, 1.006 ± 0.0089 for the second.

TTTTTCGATT and GCATGGGGCC are within error of each other in switch fluorescence ratio: 0.982 ± 0.026 for the first, 1 ± 0.011 for the second.

Compared with AGCAAACGGG, GTGATCTGAT is lower in switch fluorescence ratio: 1.26 ± 0.015 for the first, 1.01 ± 0.029 for the second.

GACAGAGGGA and AATTTTTCGC are within error of each other in switch fluorescence ratio: 1.02 ± 0.031 for the first, 0.98 ± 0.024 for the second.

Compared with TTAAGCATTT, CATTAGAGGT is lower in switch fluorescence ratio: 1.021 ± 0.0047 for the first, 0.995 ± 0.014 for the second.

Going from GTGTAAGAAC to GGCAATATGG, the switch fluorescence ratio rises from 1.016 ± 0.0048 to 1.229 ± 0.011.

TGTTTGCTTT and GTAAGAGGGG are within error of each other in switch fluorescence ratio: 0.986 ± 0.023 for the first, 1.02 ± 0.03 for the second.

TGGGGACAGT and AACGGGGAAC are within error of each other in switch fluorescence ratio: 1 ± 0.017 for the first, 0.986 ± 0.014 for the second.

TTTCGTGACT and AAAAATGTAT are within error of each other in switch fluorescence ratio: 1.02 ± 0.035 for the first, 0.975 ± 0.019 for the second.

TGCTGGTGTA and GACATAGGTT are within error of each other in switch fluorescence ratio: 1.02 ± 0.025 for the first, 1.034 ± 0.008 for the second.

TAGGAGTTTG and GGGTTTGTGT are within error of each other in switch fluorescence ratio: 0.9894 ± 0.0046 for the first, 1.01 ± 0.019 for the second.

TCATAGGTAC and CGGTCGGGAA are within error of each other in switch fluorescence ratio: 1.04 ± 0.031 for the first, 1.005 ± 0.01 for the second.

TATTTGAAAT and TAGTAGGGCA are the same in switch fluorescence ratio: 1.01 ± 0.039 for the first, 1.01 ± 0.033 for the second.

AGGGTTAAGG and TTTTTCCGTT are within error of each other in switch fluorescence ratio: 1.017 ± 0.0078 for the first, 1.12 ± 0.27 for the second.

AAGTGTTATT and AGGAGGTTGG are within error of each other in switch fluorescence ratio: 0.992 ± 0.026 for the first, 0.998 ± 0.017 for the second.

TATAATCTGT and GAAGCGTGTC are within error of each other in switch fluorescence ratio: 1.01 ± 0.017 for the first, 1.02 ± 0.017 for the second.

TTCAAGTTAG and TGGTTTTGT are within error of each other in switch fluorescence ratio: 1 ± 0.035 for the first, 1.03 ± 0.066 for the second.

CATAGGGTTT and CGTTGCTTTT are within error of each other in switch fluorescence ratio: 1.04 ± 0.047 for the first, 1.01 ± 0.026 for the second.

In the case of TCATGGGGGG, the switch fluorescence ratio is reported as 1.007 ± 0.01.
